Assay results as given in paper doi:10.1101/2022.12.02.518935.

Molecular target: Biotinylated AF546-labeled BtuF (BtuF*), construct of the smFRET-Q experiments (E. coli)
Assay: smFRET-Q

Wild type BtuCD reconstituted in nanodiscs, sequence (P06609 whole entry): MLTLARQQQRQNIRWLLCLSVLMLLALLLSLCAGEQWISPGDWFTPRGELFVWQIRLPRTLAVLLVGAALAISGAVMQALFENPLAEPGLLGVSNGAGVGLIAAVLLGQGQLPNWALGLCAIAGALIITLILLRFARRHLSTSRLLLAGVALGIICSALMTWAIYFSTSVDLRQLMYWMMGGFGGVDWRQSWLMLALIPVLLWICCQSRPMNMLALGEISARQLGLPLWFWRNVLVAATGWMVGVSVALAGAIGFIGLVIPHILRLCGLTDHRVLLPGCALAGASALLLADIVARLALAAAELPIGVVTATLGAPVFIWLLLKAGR
Wild type BtuCD reconstituted in nanodiscs, sequence (P06611 whole entry): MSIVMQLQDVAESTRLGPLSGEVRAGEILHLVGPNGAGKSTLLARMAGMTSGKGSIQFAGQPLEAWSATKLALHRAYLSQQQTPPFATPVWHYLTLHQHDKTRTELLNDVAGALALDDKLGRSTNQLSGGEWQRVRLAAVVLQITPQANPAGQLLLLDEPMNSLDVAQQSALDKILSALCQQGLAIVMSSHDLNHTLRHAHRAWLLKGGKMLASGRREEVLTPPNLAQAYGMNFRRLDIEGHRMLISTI

Substance “Wild type BtuCD reconstituted in nanodiscs (from UniProt P06609 1-326; P06611 1-249) (complex)” has an occupancy time of the H state (locked BtuCD-F* complex) with 0.5 mM Mg-ATP of 1 s.
